B1: TNFα-NTF(1–51) (domain or fragment, human, UniProt P01375 1-51, looked up)
chain: MSTESMIRDVELAEEALPKKTGGPQGSRRCLFLSLFSFLIVAGATTLFCLL
notes: The text names it without MBP; source: E. coli NEB Express (pMalC5X), membrane fraction solubilised with Triton X-100, purified (amylose); not shown: MBP, N-terminal, kept
B2: MBP-TNFα-NTF(1–76) (domain or fragment, human, UniProt P01375 1-76, looked up)
chain: MSTESMIRDVELAEEALPKKTGGPQGSRRCLFLSLFSFLIVAGATTLFCLLHFGVIGPQREEFPRDLSLISPLAQA
notes: also called TNFα-NTF(1–76) wt; MBP-TNFα(1–76); source: E. coli NEB Express (pMalC5X), membrane fraction solubilised with Triton X-100, purified (amylose); not shown: MBP, N-terminal, kept
B3: TNFα-NTF(1–47) (domain or fragment, human, UniProt P01375 1-47, looked up)
chain: MSTESMIRDVELAEEALPKKTGGPQGSRRCLFLSLFSFLIVAGATTL
notes: as for B1

Biological target: the molecule itself
Test: SEC; gel filtration of purified MBP fusion proteins, Superose 6 Increase 10/300 GL, 4 °C, TN buffer (50 mM Tris/HCl pH 7.4, 150 mM NaCl) with 0.1% Triton X-100; growth medium with or without δ-aminolevulinic acid

| Protein | binding result | stoichiometry N |
| --- | --- | --- |
| B1 | binds | – |
| B2 | – | 3 |
| B3 | – | 2 |

Reference: publication PMC7021776, “Heme binding of transmembrane signaling proteins undergoing regulated intramembrane proteolysis” (Communications Biology, 2020)
